# Where a chain is given by its changes, count along the chain named. Names may count otherwise. Like-named read-outs stand apart in the source and are kept apart here.
# T1: heparinase II (Pedobacter heparinus, UniProt C6XZB6)
# T1 sequence (C6XZB6 26-772): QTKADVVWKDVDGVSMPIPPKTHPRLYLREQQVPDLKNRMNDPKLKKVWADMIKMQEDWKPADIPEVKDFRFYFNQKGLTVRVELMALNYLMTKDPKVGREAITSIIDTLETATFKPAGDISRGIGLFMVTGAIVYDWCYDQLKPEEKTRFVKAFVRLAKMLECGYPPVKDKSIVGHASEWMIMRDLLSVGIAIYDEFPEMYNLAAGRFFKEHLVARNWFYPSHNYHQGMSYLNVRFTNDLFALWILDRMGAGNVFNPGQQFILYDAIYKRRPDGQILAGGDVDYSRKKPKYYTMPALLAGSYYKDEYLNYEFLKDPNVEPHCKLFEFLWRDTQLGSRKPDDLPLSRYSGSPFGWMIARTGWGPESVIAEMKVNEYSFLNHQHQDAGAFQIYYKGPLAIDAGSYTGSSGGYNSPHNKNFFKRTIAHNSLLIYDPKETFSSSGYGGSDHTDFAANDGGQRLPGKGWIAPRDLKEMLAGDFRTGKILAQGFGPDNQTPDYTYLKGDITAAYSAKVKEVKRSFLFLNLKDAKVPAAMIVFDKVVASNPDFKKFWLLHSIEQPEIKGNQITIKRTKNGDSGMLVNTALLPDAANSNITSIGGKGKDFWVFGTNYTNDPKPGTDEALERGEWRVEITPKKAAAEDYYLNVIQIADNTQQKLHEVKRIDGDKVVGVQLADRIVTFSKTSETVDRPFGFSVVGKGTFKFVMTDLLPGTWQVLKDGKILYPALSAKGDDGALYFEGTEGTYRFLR
# B1: N375A: heparinase I CB-2 mutant, asparagine 375 changed to alanine (protein, UniProt Q05819 22-384, looked up, variant N375A)
# Heparin lyase I: QQKKSGNIPYRVNVQADSAKQKAIIDNKWVAVGINKPYALQYDDKLRFNGKPSYRFELKAEDNSLEGYAAGETKGRTELSYSYATTNDFKKFPPSVYQNAQKLKTVYHYGKGICEQGSSRSYTFSVYIPSSFPDNATTIFAQWHGAPSRTLVATPEGEIKTLSIEEFLALYDRMIFKKNIAHDKVEKKDKDGKITYVAGKPNGWKVEQGGYPTLAFGFSKGYFYIKANSDRQWLTDKADRNNANPENSEVMKPYSSEYKTSTIAYKMPFAQFPKDCWITFDVAIDWTKYGKEANTILKPGKLDVMMTYTKNKKPQKAHIVNQQEILIGRNDDDGYYFKFGIYRVGNSTVPVTYALSGYSETAR
# B2: E207A/D210A/D212A: heparinase I CB-1 triple mutant (protein, UniProt Q05819 22-384, looked up, variant E207A D210A D212A)
# Heparin lyase I: B1 Heparin lyase I with E186A, D189A, D191A, A354N
# B3: G378A/Y379A: heparinase I CB-2 double mutant (protein, UniProt Q05819 22-384, looked up, variant G378A Y379A)
# Heparin lyase I: B1 Heparin lyase I with A354N, G357A, Y358A
# B4: -L: wild-type recombinant heparinase I expressed without the putative F. heparinum leader sequence (protein, UniProt Q05819 22-384, looked up)
# Heparin lyase I: B1 Heparin lyase I with A354N
# modifications: recombinant, without leader sequence
# Tests used:
# heparinase II [1] = target: T1, heparinase II; test: 4-VP, NEM, IAA and IAM inactivation of heparinase II; format: biochemical, Flavobacterium heparinum
# Experimental: 4-VP, NEM IAA, and AM Inactivation Heparinase II (100 μg/ml) was incubated with varying concentrations of either 4-VP, NEM, IAA or IAM (Lundblad, R. L. (1995) Techniques in Protein Modification. pp. 63-91, CRC Press, Boca Raton). Aqueous stock solutions ([…]) of each reagent was prepared immediately before use. For NEM and 4-VP the concentrations of modifying reagent were varied from 0.2-2 mM. In the case of IAA or IAM, the concentrations of the reagent ranged from 1-10 mM. All reactions were conducted in 50 mM sodium-phosphate buffer, pH 7.0, at room temperature. The time course of inactivation was monitored in each case, time courses for each of the reagents were compared using either heparin or heparan sulfate as the substrate.
# heparinase II [2] = target: T1, heparinase II; test: DTNB modification and inactivation of heparinase II; format: biochemical, Flavobacterium heparinum
# From the text: (§1) Heparinase II Activity Assay. Native heparinase II from Flavobacterium heparinum, was purified as described previously (Godavarti, R., and Sasisekharan, R (1996c) Biochem. Biophys. Res. Comm. 229, 770-777). The UV 232 nm assay to quantify native heparinase II enzymatic activity was similar to that reported for heparinase I (Bernstein, H., Yang, V. C., Cooney, C. L., Langer, R. (1988) Meth. Enzym. 137, 515-29). Briefly, the course of the reaction is monitored by measuring the increase in absorbance at 232 nm as a function of time under saturating substrate concentrations. With heparin as the substrate, the reaction was carried out at a concentration of 4 mg/ml in 50 mM sodium phosphate buffer, pH 7.3. With 2 mg/ml heparan sulfate, the reaction was measured in 50 mM sodium phosphate buffer, pH 6.9 (Sasisekharan, R., Moses, M. A., Nugent, M. A., Cooney, C. L., Langer, R. (1994) Proc. Natl. Acad. Sci., USA 91, 1524-1528). The temperature for all enzymatic activity measurements was kept constant at 35° C.
# DTNB Modification Studies. (A) Inactivation with DTNB. Heparinase II (100 μg/ml) was incubated with DTNB (0.1-0.5 mM). A DTNB stock solution was made by dissolving DTNB in ethanol and an aliquot was added to the reaction mixture (Lundblad, R. L. (1995) Techniques in Protein Modification. pp. 63-91, CRC Press, Boca Raton).
# (B) Quantification of DTNB—modified residues of heparinase II. Quantification of DTNB-modified heparinase II residues was determined by difference spectra. At time zero, 2 mM DTNB was added to the sample cuvette containing heparinase II (825 μg/ml) in sodium phosphate buffer, pH 7.0. The change in absorbance at 410 nm was monitored every. 30 seconds for 10 minutes. To account for the decomposition of DTNB in the reaction mixture, a control was also done by monitoring the change in absorbance at 410 nm with only DTNB (2 mM) in 50 mM sodium phosphate buffer, pH 7.0. Heparinase II activity assays were also performed on the reaction mixture. The number of heparinase II cysteine residues modified was determined using ∈=13,600 M cm^−1 (Lundblad, R. L. (1995) Techniques in Protein Modification. pp. 63-91, CRC Press, Boca Raton). A similar experiment was completed after preincubating the enzyme with heparin for 30 minutes.
# [3] = Heparinase I UV 232 nm activity assay as a function of heparin concentration (Kcat, Km); format: biochemical, porcine; settings: for Kcat / Km: heparin 0 to 4 mg/ml, 5 mM calcium acetate, pH 7.0; for Kcat: 100 mM MOPS
# From the text: as §1
# Heparinase I Activity Assay. The UV 232 nm assay to quantify heparinase I enzymatic activity was similar to that described in Example 1. With heparin as the substrate, the reaction was carried out at a concentration of 4 mg/ml in 100 mM MOPS, 5 mM calcium acetate, pH 7.0. The temperature for all enzymatic activity measurements was kept constant at 30° C. For the inactivation kinetic profiles, activity was measured as outlined above at precise time points.
# (§2) Heparinase I Activity Assays: The UV 232 nm assay was used as described in Example 1. When measuring the enzyme activity as a function of heparin concentration, heparin concentrations varied from 0 to 4 mg/ml at a fixed calcium concentration of 5 mM (100 mM MOPS buffer/5 mM calcium acetate, pH 7.0). The data was then fit to an non-linear equation to determine Kcat and Km of heparinases I. Heparinase mutant activity was also investigated as a function of calcium concentration ranging from 0 to 10 mM. […] Activity is expressed as IU-μmol product formed/min using ∈=−3800-M^−1CM^−1.
# [4] = Heparinase I activity as a function of calcium concentration (K0.5, calcium dependence); format: biochemical
# Experimental: as §2
# [5] = Heparin-POROS affinity chromatography; format: binding; settings: for NaCl: salt concentration at which enzyme elutes from heparin-POROS column, 10 mM Tris, 1 mM EDTA pH 7.0
# Experimental: Heparin-POROS chromatography: About 30-40 μg of -L r-heparinase I and the various mutant enzymes were injected into a heparin POROS (4.6 mm×100) column (PerSeptive BioSystems, Framingham, Mass.) connected to BioCAD system (PerSeptive BioSystems). Proteins were eluted using a linear gradient of […] NaCl in 10 min (10 mM Tris, 1 mM EDTA pH 7.0) and monitored at 210 nm. EDTA was added to chelate any calcium ions that may be present in the buffers.
# [6] = Fluorescence competition for calcium with probe rhod-5N; settings: apparent dissociation constant of rhod-5N for calcium with 3 μM enzyme; lower Kd′ means less binding of calcium by heparinase I
# Experimental: Fluorescence Competition. To determine the effect of mutations in CB-1 and CB-2 on the ability of heparinase I to bind calcium, mutants with a dramatic drop in activity were tested for their ability to bind calcium. To accomplish this, we examined the ability of heparinase I and mutants to compete for free calcium with the calcium-chelating fluorescence probe rhod-5N. The fluorescence probe rhod-5N was dissolved and diluted in buffer A (10 mM MOPS and 100 mM KCl, pH 6.5). Buffer A and the water used in the study were run through a Chelex Resin column to remove trace amounts of calcium. In the absence of calcium, rhod-5N is not fluorescent, however upon binding calcium rhod-5N is fluorescent with an emission λmax of 576 nm. Before titration, rhod-5N and heparinase I were added to a quartz cuvette such that the final concentration of rhod-5N in the cuvette was 0.3 μM and heparinase I is 3 μM. To this solution was added aliquots of a calcium solution (20 mM) which had been previously equilibrated with 0.3 μM rhod-5N and 3 μM heparinase I. The stock was added such that the calcium concentration in the cuvette was 50, 100, 200, 500, 1000, 5000 μM. After allowing the solution to come to equilibrium, the sample was scanned from 560 nm to 600 nm with the excitation wavelength fixed at […]. The plot of I/Imax versus [Ca^++] was fitted to a non-linear equation to determine the apparent Kd (Kd′) value. Thus, Kd′ values represent the apparent dissociation constants for the fluorescence probe rhod-5N. Control samples without heparinase I were included in the study.
# [7] = 2 mM DTNB, 10 minutes, enzyme preincubated with heparin
# [8] = 2 mM DTNB, 10 minutes, without heparin preincubation
# [9] = calcium concentration at which half of the maximum enzyme activity was observed, calcium 0 to 10 mM, Table 4 first K0.5 column
Kd [6] [µM],Molecule,"inhibition of heparinase II activity, in words (heparinase II [1])",Kcat [3] [s⁻¹],Km [3] [µM],K0.5 ([4]; Table 4 second K0.5 column) [µM],"K0.5 [4, 9] [µM]",NaCl [5] [mM],further results
,"C=Cc1ccncc1 [4-VP, 4-vinylpyridine]",inhibited heparinase II activity in a dose-dependent fashion,,,,,,
,"O=C(O)c1cc(SSc2ccc([N+](=O)[O-])c(C(=O)O)c2)ccc1[N+](=O)[O-] [DTNB, 5,5′-dithiobis-(2-nitrobenzoic acid)]",,,,,,,"loss of activity (heparinase II [2]; [7]): 25%; number of cysteines modified (heparinase II [2]; [7]): 1.3 cysteines; loss of initial activity (heparinase II [2]; [8]): 80%; number of cysteines modified (heparinase II [2]; [8]): 2.4 cysteines; kinact/KI (heparinase II [2]; DTNB 0-0.5 mM, read-out: second-order rate constant of inactivation (converted)): 10.2 M⁻¹ s⁻¹"
,"O=C(O)CI [IAA, iodoacetic acid]",least effective,,,,,,
,"CCN1C(=O)C=CC1=O [NEM, N-ethylmaleimide]",inhibited heparinase II activity in a dose-dependent fashion,,,,,,
216,B1,,10,0.88,60,60,490,"decrease in Kcat compared to wild-type r-heparinase I [3]: about 10 fold; decrease in Kcat compared to wild-type r-heparinase I ([3]; listed as N375): more than 9 fold; elution salt concentration / heparin binding relative to wild-type r-heparinase I, in words [5]: comparable to wild-type r-heparinase I"
151,B2,,25,0.73,810,810,540,
136,B3,,9,0.31,90,90,489,"elution salt concentration / heparin binding relative to wild-type r-heparinase I, in words [5]: comparable to wild-type r-heparinase I"
206,B4,,92,3.94,270,270,482 ± 3,NaCl ([5]; listed as wild-type r-heparinase I): about 482 mM
